According to patent publication US20240148887A1 (MERSANA THERAPEUTICS, published 2024):
Residue numbers refer to the chain shown, from its start.

B1: XMT-1535 (anti-NaPi2b antibody) (antibody, human IgG1, kappa)
heavy: not shown
light: DIQMTQSPSSLSASVGDRVTITCSASQDIGNFLNWYQQKPGKTVKVLIYYTSSLYSGVPSRFSGSGSGTDYTLTISSLQPEDFATYYCQQYSKLPLTFGQGTKLELKRRTVAAPSVFIFPPSDEQLKSGTASVVCLLNNFYPREAKVQWKVDNALQSGNSQESVTEQDSKDSTYSLSSTLTLSKADYEKHKVYACEVTHQGLSSPVTKSFNRGEC
notes: Unconjugated IgG1 antibody
B2: Conjugate 11 (XMT-1535 stochastic conjugate) (antibody, human IgG1, kappa)
heavy: not shown
light: B1 light
modifications: maleimido scaffold of Scaffold 6 (AF-HPA payload) on cysteines freed by TCEP reduction; stochastic, positions not given
notes: DAR 6.5
B3: Conjugate 7 (XMT-1535 drug conjugate of Scaffold 6) (antibody, human IgG1, kappa)
heavy: not shown
light: B1 light
modifications: Scaffold 6 linker-drug (AF-HPA payload) attached by click chemistry to the azido-modified GlcNAc(Fuc)-GalNAc glycan on the asparagine at N297 (N300 of SEQ ID NO: 1 according to claim 40)
notes: The glycan was trimmed with Endo SH and extended with an azido sugar; the text prints 6.6

Assays:
[1] = biological target: T1, NaPi2b on the cell surface of OVCAR3 human ovarian carcinoma cells (human, UniProt O95436 1-690); assay: flow cytometry on OVCAR3 cells, Alexa Fluor 647 anti-human IgG, median fluorescence, four-parameter fit; mean of 2 experiments
T1 construct: also called sodium-dependent phosphate transport protein 2B; SLC34A2
T1 sequence: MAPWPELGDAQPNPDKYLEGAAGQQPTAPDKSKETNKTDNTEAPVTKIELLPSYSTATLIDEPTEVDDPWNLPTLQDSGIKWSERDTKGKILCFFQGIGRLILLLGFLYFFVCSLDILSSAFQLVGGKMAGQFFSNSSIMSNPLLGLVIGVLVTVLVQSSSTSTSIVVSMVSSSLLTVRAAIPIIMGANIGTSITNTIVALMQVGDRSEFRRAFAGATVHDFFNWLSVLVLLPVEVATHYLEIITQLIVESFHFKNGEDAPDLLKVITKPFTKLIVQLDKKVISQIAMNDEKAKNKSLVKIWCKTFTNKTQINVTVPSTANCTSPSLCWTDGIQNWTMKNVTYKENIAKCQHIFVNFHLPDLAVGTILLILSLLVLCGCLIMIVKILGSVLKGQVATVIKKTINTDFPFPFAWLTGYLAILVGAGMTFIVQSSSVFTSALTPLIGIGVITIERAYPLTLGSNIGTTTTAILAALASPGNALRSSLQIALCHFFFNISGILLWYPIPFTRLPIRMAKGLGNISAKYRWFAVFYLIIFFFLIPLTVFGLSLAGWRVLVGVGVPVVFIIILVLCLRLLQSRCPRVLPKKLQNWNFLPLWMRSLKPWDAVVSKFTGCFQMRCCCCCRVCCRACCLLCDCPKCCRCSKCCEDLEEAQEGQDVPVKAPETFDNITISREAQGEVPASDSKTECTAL
Description: The detached cells were triturated in media, and plated in 96 well U-bottom plates, at a density of 50,000 cells in medium (75 μL). […] The cells were washed with ice cold PBS (3×), and resuspended in ice cold PBS with 1% paraformaldehyde (100 L). The fluorescence per cell was determined by analyzing 5,000 cells for each treatment on the flow cytometer. The median fluorescence value for each treatment was plotted, and EC₅₀ values were calculated with Graphpad Prism software by four-parameter curve fitting.

[2] = biological target: T2, human FcRn protein (Immunitrack) (human, UniProt P55899 24-297; P61769 21-119, limits assumed); assay: BLI (Octet QKe), test article on anti-human Fab-CH1 (FAB2G) sensors, FcRn in solution, pH 6.0, 1:1 global fit; mean of 2 experiments
T2 construct: also called FcRn receptor
T2 sequence (P55899 24-297 limits assumed, chain 1 of 2): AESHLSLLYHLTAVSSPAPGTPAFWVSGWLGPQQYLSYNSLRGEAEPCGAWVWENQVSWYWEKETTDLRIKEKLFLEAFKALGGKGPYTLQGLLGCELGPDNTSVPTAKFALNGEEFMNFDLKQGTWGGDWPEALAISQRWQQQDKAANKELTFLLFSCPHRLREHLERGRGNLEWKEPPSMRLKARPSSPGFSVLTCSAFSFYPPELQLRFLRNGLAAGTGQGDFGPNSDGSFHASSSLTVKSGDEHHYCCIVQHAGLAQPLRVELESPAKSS
T2 sequence (P61769 21-119 limits assumed, chain 2 of 2): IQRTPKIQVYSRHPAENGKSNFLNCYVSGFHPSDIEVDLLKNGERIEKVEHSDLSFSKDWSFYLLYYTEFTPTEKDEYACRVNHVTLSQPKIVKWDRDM
Description: (§1) Dissociation was performed for 15 minutes. Binding constants were calculated with the global fit averages of the traces using a 1:1 model. […] Kinetic parameters were calculated using Octet software (ForteBio).
(§2) After association, sensors were washed for 5 minutes in FcRn binding buffer (Boston Bioproducts; diluted to 100 mM NaH₂PO₄, 0.05% Tween 20, pH 6.0). Association and dissociation steps were performed in FcRn binding buffer. Association measurements to FcRn protein (Immunitrack) was measured at 7 concentrations (from 1 μM to […], 2-fold serial dilutions) for 5 minutes. Dissociation was performed for 15 minutes. Binding constants were calculated with the global fit averages of the traces using a 1:1 model.

[3] = biological target: T3, Human NaPi2b-derived peptide (QINVTVPSTANCTSPSLCWTDGIQNWTMKN) (human); assay: ELISA, peptide coated on plate, anti-human IgG-HRP, four-parameter fit; mean of 2 experiments
T3 construct: no modification is printed there; also called NaPi2b peptide
T3 peptide: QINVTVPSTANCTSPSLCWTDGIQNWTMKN
Description: (§3) Human NaPi2b-derived peptide ([sequence]) was coated onto the surface of each well of a 96-well plate by incubation with the peptide (1 μg/mL in PBS), overnight at +4° C. The wells were then blocked by incubation with BSA (3% in PBS, containing 0.1% Tween 20 (PBST)) for 1 hour at room temperature. […] The unbound test article was removed by washing with PBST (3×). A secondary anti-human IgG conjugated to HRP (0.16 μg/mL in PBST) was incubated in each well for 1 hour. The unbound secondary antibody was removed by washing with PBST (3×). The HRP substrate, TMB, was added to each well and incubated until a blue color was visible. The reaction was quenched by the addition of sulfuric acid (0.2 N, 100 μL). […] The values were plotted using GraphPad Prism software. EC₅₀ values were determined by four-parameter curve fitting.

[4] = biological target: T4, NaPi2b-derived peptide from human ([Cyc(12,18)]Ac-QINVTVPSTANCTSPSLCWTDGIQNWTMKN-amide) (human, [Cyc(12,18)] cyclisation between residues 12 and 18; N-terminal acetyl (Ac-); C-terminal amide); assay: ELISA, cyclic peptide coated on plate; mean of 2 experiments
T4 peptide: T3 peptide

[5] = biological target: T5, NaPi2b-derived peptide from mouse ([Cyc(12,18)]Ac-EMNVTVPSTDNCTSPSYCWTDGIQTWTIQN-amide) (mouse, [Cyc(12,18)] cyclisation between residues 12 and 18; N-terminal acetyl (Ac-); C-terminal amide); assay: as above
T5 peptide: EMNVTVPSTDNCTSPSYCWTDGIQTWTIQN

[6] = biological target: T6, NaPi2b-derived peptide from rat ([Cyc(12,18)]Ac-EENVTVPSPDNCTSPSYCWTDGIQTWTIQN-amide) (rat, [Cyc(12,18)] cyclisation between residues 12 and 18; N-terminal acetyl (Ac-); C-terminal amide); assay: as above
T6 peptide: T5 peptide with M2E, T9P

[7] = biological target: T7, NaPi2b-derived peptide from cynolmogus monkey ([Cyc(12,18)]Ac-QMNVTVPSMANCTSPSLCWTDGIQIWTMKN-amide) (cynomolgus monkey, [Cyc(12,18)] cyclisation between residues 12 and 18; N-terminal acetyl (Ac-); C-terminal amide); assay: as above
T7 peptide: T3 peptide with I2M, T9M, N25I

FcγRIIA (H167) [8] = biological target: T8, FcγRIIA (H167) (human, UniProt P12318 36-218, limits assumed); assay: BLI (Octet QKe), test article on anti-human Fab-CH1 (FAB2G) sensors, receptor in solution, 25 C, 1:1 global fit; mean of 3 experiments
T8 construct: H167 is printed as the allelic form
T8 sequence (looked up): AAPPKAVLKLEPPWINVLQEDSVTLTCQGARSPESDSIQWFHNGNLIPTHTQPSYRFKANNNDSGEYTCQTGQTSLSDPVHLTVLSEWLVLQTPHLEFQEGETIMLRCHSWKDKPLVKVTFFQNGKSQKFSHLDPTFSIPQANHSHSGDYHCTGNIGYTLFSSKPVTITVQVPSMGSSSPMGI
Description: as §1

FcγRI [9] = biological target: T9, FcγRI (human, UniProt P12314 16-288, limits assumed); assay: as above
T9 construct: also called Fc receptor FcγRI
T9 sequence (P12314 16-288 limits assumed): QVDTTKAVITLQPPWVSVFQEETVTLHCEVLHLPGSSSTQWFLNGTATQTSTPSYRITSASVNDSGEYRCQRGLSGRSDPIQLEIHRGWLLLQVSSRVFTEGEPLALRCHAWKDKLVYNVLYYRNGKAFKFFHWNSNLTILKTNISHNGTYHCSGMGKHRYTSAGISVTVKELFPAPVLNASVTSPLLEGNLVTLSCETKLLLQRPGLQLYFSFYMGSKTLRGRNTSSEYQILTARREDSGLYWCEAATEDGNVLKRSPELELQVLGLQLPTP
Description: as §1

FcγRIIIA (V176) = FcγRIIIA (V176) (human, UniProt P08637 17-208, limits assumed); assay: BLI (Octet QKe), test article on anti-human Fab-CH1 (FAB2G) sensors, receptor in solution, 25 C, 1:1 global fit; mean of 2 experiments
Chain of FcγRIIIA (V176) (P08637 17-208 F176V limits assumed): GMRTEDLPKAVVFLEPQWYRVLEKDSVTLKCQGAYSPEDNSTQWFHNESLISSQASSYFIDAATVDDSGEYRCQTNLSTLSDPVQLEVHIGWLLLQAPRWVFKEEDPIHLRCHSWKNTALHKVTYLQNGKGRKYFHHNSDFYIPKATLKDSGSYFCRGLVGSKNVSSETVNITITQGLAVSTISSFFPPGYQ
Description: as §1

[10] = biological target: T10, Biotinylated NaPi2b-derived peptide (QINVTVPSTANCTSPSLCWTDGIQNWTMKN-biotin; Genscript) (C-terminal biotin); assay: BLI (Octet), biotinylated peptide on streptavidin sensors, 25 C; mean of 4 experiments
T10 construct: also called NaPi2b-derived peptide antigen; immobilized NaPi2b-derived peptide
T10 peptide: T3 peptide
Description: Biotinylated NaPi2b-derived peptide ([…]-biotin; Genscript) was immobilized to streptavidin octet sensors in kinetics buffer (10×). Sensors were then blocked in kinetics buffer (10×) with biocytin (50 μg/mL).

[11] = biological target: T3, Human NaPi2b-derived peptide …; assay: ELISA, peptide coated on plate, anti-human IgG-HRP, four-parameter fit; mean of 3 experiments
Description: as §3

FcγRIIA (H167) [12] = biological target: T8, FcγRIIA (H167); assay: BLI (Octet QKe), test article on anti-human Fab-CH1 (FAB2G) sensors, receptor in solution, 25 C, 1:1 global fit; mean of 2 experiments
Description: as §1

FcγRI [13] = biological target: T9, FcγRI; assay: as above
Description: as §1

[14] = biological target: T2, human FcRn protein (Immunitrack); assay: BLI (Octet QKe), test article on anti-human Fab-CH1 (FAB2G) sensors, FcRn in solution, pH 6.0, 1:1 global fit; mean of 5 experiments
Description: as §1, §2

Binder	EC50 [1] [nM]	EC50 [4] [nM]	EC50 [5] [nM]	EC50 [6] [nM]	EC50 [7] [nM]	Kd (FcγRI [9]) [nM]	koff (FcγRI [9]) [s⁻¹]	kon (FcγRI [9]) [M⁻¹ s⁻¹]	Kd (FcγRIIIA (V176)) [nM]	koff (FcγRIIIA (V176)) [s⁻¹]	kon (FcγRIIIA (V176)) [M⁻¹ s⁻¹]	Kd [10] [nM]	koff [10] [s⁻¹]	kon [10] [M⁻¹ s⁻¹]	EC50 [11] [nM]	Kd [14] [nM]	koff [14] [s⁻¹]	kon [14] [M⁻¹ s⁻¹]	other results
B1	11.2	4.43	2.77	4.71	4.04	0.15	0.000192	1.28e+06	641	0.146	216000	0.0729	1.27e-05	170000	–	–	–	–	Kd [2]: 2.76 nM; koff [2]: 0.000448 s⁻¹; kon [2]: 160000 M⁻¹ s⁻¹; EC50 [3]: 1.77 nM; Kd (FcγRIIA (H167) [8]): 1740 nM; koff (FcγRIIA (H167) [8]): 0.308 s⁻¹; kon (FcγRIIA (H167) [8]): 175000 M⁻¹ s⁻¹
B2	6.56	5	2.26	3.72	4.19	–	–	–	270	0.0671	270000	0.0813	1.37e-05	165000	1.05	4.96	0.00055	126000	Kd (FcγRIIA (H167) [12]): 1250 nM; koff (FcγRIIA (H167) [12]): 0.345 s⁻¹; kon (FcγRIIA (H167) [12]): 273000 M⁻¹ s⁻¹; Kd (FcγRI [13]): 0.166 nM; koff (FcγRI [13]): 0.000209 s⁻¹; kon (FcγRI [13]): 1.26e+06 M⁻¹ s⁻¹
B3	8.15	3.7	1.79	2.48	3.83	3.05	0.00373	1.13e+06	–	–	–	0.0828	1.81e-05	200000	1.44	5.88	0.000481	86100	–
